# Source: patent publication US20080182978A1, “ANTI-NGF ANTIBODIES AND METHODS USING SAME” (RINAT NEUROSCIENCE CORP, priority 2002, published 2008)
# B1: E3: humanized, affinity matured anti-NGF antagonist antibody; variable regions SEQ ID NO:1 and 2; human IgG2a (A330P331 to S330S331), kappa (antibody, V domains shown)
# VH: QVQLQESGPGLVKPSETLSLTCTVSGFSLIGYDLNWIRQPPGKGLEWIGIIWGDGTTDYNSAVKSRVTISKDTSKNQFSLKLSSVTAADTAVYYCARGGYWYATSYYFDYWGQGTLVTVS
# VL: DIQMTQSPSSLSASVGDRVTITCRASQSISNNLNWYQQKPGKAPKLLIYYTSRFHSGVPSRFSGSGSGTDFTFTISSLQPEDIATYYCQQEHTLPYTFGQGTKLEIKRT
# modifications: human IgG2a constant (A330S/P331S) and kappa constant missing
# Experiment: Dose response of E3 on body weight in arthritic rats (Example 9)
# Assay type: in vivo, rat
# Procedure: The ability of E3 to produce reduction in pain in arthritic rats was further investigated by examining the dose response relationship between E3 administration and pain reduction. Rats were treated with adjuvant to induce arthritis as described above. Ten rats not injected with adjuvant were used as non-arthritic controls. Fourteen days after adjuvant injection, animals were qualified into the study based on the criteria stated above, randomized into eight groups of ten rats and tested for the intensity of their vocalization response. They were then dosed on day 14 with saline, or 0.003 mg/kg, 0.01 mg/kg, 0.03 mg/kg, 0.1 mg/kg, 0.3 mg/kg, 1 mg/kg or 5 mg/kg of E3 antibody as described above. Animals were tested for their vocalization response on days 16, 18, 20, and 24. Animals were redosed with saline or the same dose of E3 on day 18 after the vocalization testing. Animals were also weighed each day, starting at day 14. Thus, animals were dosed twice with a given dose of antibody or saline on days 14 and 18, and assessed for pain five times, on days 14, 16, 18, 20 and 24. Data are shown in Tables 20-22 and in FIGS. 20-22.
# The effect of treating animals with various doses of anti-NGF antibody E3 on body weight was statistically analyzed by using two-way ANOVA to compare the results obtained pairwise between arthritic animals treated with vehicle with those treated with a given dose of antibody E3. […] At all higher dose of E3, the difference between treated and untreated arthritic animals was significant (p= or <0.0001). […]
# [1] = E3 0.1 mg/kg on days 14+18, day 17
# [2] = E3 0.1 mg/kg on days 14+18, day 18
# [3] = E3 0.1 mg/kg on days 14+18, day 20
# [4] = E3 0.1 mg/kg on days 14+18, day 21
# [5] = E3 0.1 mg/kg on days 14+18, day 23
# [6] = E3 0.1 mg/kg on days 14+18, day 24
# [7] = E3 0.3 mg/kg on days 14+18, day 14
# [8] = E3 0.3 mg/kg on days 14+18, day 15
# [9] = E3 0.3 mg/kg on days 14+18, day 16
# [10] = E3 0.3 mg/kg on days 14+18, day 17
# [11] = E3 0.3 mg/kg on days 14+18, day 18
# [12] = E3 0.3 mg/kg on days 14+18, day 20
# [13] = E3 0.3 mg/kg on days 14+18, day 21
# [14] = E3 0.3 mg/kg on days 14+18, day 23
# [15] = E3 0.3 mg/kg on days 14+18, day 24
# [16] = E3 1.0 mg/kg on days 14+18, day 14
# [17] = E3 1.0 mg/kg on days 14+18, day 15
# [18] = E3 1.0 mg/kg on days 14+18, day 16
# [19] = E3 1.0 mg/kg on days 14+18, day 17
# [20] = E3 1.0 mg/kg on days 14+18, day 18
# [21] = E3 1.0 mg/kg on days 14+18, day 20
# [22] = E3 1.0 mg/kg on days 14+18, day 21
# [23] = E3 1.0 mg/kg on days 14+18, day 23
# [24] = E3 1.0 mg/kg on days 14+18, day 24
# [25] = E3 5.0 mg/kg on days 14+18, day 14
# [26] = E3 5.0 mg/kg on days 14+18, day 15
# [27] = E3 5.0 mg/kg on days 14+18, day 16
# [28] = E3 5.0 mg/kg on days 14+18, day 17
# [29] = E3 5.0 mg/kg on days 14+18, day 18
# [30] = E3 5.0 mg/kg on days 14+18, day 20
# [31] = E3 5.0 mg/kg on days 14+18, day 21
# [32] = E3 5.0 mg/kg on days 14+18, day 23
# [33] = E3 5.0 mg/kg on days 14+18, day 24
molecule,measurement,setting,value
B1,Body weight normalized to day 14,"E3 0.1 mg/kg on days 14+18, day 16",101.07
same,Body weight normalized to day 0,[1],115.99
same,Body weight normalized to day 14,[1],101.89
same,Body weight normalized to day 0,[2],118.01
same,Body weight normalized to day 14,[2],103.69
same,Body weight normalized to day 0,[3],122.17
same,Body weight normalized to day 14,[3],107.36
same,Body weight normalized to day 0,[4],123.49
same,Body weight normalized to day 14,[4],108.50
same,Body weight normalized to day 0,[5],124.35
same,Body weight normalized to day 14,[5],109.25
same,Body weight normalized to day 0,[6],123.77
same,Body weight normalized to day 14,[6],108.77
same,Body weight normalized to day 0,"E3 0.3 mg/kg on days 14+18, day 0",100.00
same,Body weight normalized to day 0,"E3 0.3 mg/kg on days 14+18, day 1",99.26
same,Body weight normalized to day 0,"E3 0.3 mg/kg on days 14+18, day 2",102.98
same,Body weight normalized to day 0,"E3 0.3 mg/kg on days 14+18, day 3",106.95
same,Body weight normalized to day 0,"E3 0.3 mg/kg on days 14+18, day 4",110.50
same,Body weight normalized to day 0,"E3 0.3 mg/kg on days 14+18, day 7",120.03
same,Body weight normalized to day 0,"E3 0.3 mg/kg on days 14+18, day 8",121.38
same,Body weight normalized to day 0,"E3 0.3 mg/kg on days 14+18, day 9",121.57
same,Body weight normalized to day 0,"E3 0.3 mg/kg on days 14+18, day 10",118.27
same,Body weight normalized to day 0,"E3 0.3 mg/kg on days 14+18, day 11",116.02
same,Body weight normalized to day 0,[7],108.43
same,Body weight normalized to day 14,[7],100.00
same,Body weight normalized to day 0,[8],109.59
same,Body weight normalized to day 14,[8],101.05
same,Body weight normalized to day 0,[9],111.54
same,Body weight normalized to day 14,[9],102.88
same,Body weight normalized to day 0,[10],113.57
same,Body weight normalized to day 14,[10],104.76
same,Body weight normalized to day 0,[11],116.13
same,Body weight normalized to day 14,[11],107.11
same,Body weight normalized to day 0,[12],120.62
same,Body weight normalized to day 14,[12],111.26
same,Body weight normalized to day 0,[13],122.88
same,Body weight normalized to day 14,[13],113.31
same,Body weight normalized to day 0,[14],125.36
same,Body weight normalized to day 14,[14],115.59
same,Body weight normalized to day 0,[15],125.33
same,Body weight normalized to day 14,[15],115.58
same,Body weight normalized to day 0,"E3 1.0 mg/kg on days 14+18, day 0",100.00
same,Body weight normalized to day 0,"E3 1.0 mg/kg on days 14+18, day 1",98.81
same,Body weight normalized to day 0,"E3 1.0 mg/kg on days 14+18, day 2",103.18
same,Body weight normalized to day 0,"E3 1.0 mg/kg on days 14+18, day 3",106.52
same,Body weight normalized to day 0,"E3 1.0 mg/kg on days 14+18, day 4",110.52
same,Body weight normalized to day 0,"E3 1.0 mg/kg on days 14+18, day 7",121.54
same,Body weight normalized to day 0,"E3 1.0 mg/kg on days 14+18, day 8",124.28
same,Body weight normalized to day 0,"E3 1.0 mg/kg on days 14+18, day 9",125.60
same,Body weight normalized to day 0,"E3 1.0 mg/kg on days 14+18, day 10",124.11
same,Body weight normalized to day 0,"E3 1.0 mg/kg on days 14+18, day 11",121.27
same,Body weight normalized to day 0,[16],111.72
same,Body weight normalized to day 14,[16],100.00
same,Body weight normalized to day 0,[17],112.30
same,Body weight normalized to day 14,[17],100.53
same,Body weight normalized to day 0,[18],115.00
same,Body weight normalized to day 14,[18],102.95
same,Body weight normalized to day 0,[19],118.08
same,Body weight normalized to day 14,[19],105.74
same,Body weight normalized to day 0,[20],121.16
same,Body weight normalized to day 14,[20],108.46
same,Body weight normalized to day 0,[21],126.90
same,Body weight normalized to day 14,[21],113.57
same,Body weight normalized to day 0,[22],130.41
same,Body weight normalized to day 14,[22],116.71
same,Body weight normalized to day 0,[23],137.81
same,Body weight normalized to day 14,[23],123.35
same,Body weight normalized to day 0,[24],138.93
same,Body weight normalized to day 14,[24],124.41
same,Body weight normalized to day 0,"E3 5.0 mg/kg on days 14+18, day 0",100.00
same,Body weight normalized to day 0,"E3 5.0 mg/kg on days 14+18, day 1",98.25
same,Body weight normalized to day 0,"E3 5.0 mg/kg on days 14+18, day 2",101.82
same,Body weight normalized to day 0,"E3 5.0 mg/kg on days 14+18, day 3",105.47
same,Body weight normalized to day 0,"E3 5.0 mg/kg on days 14+18, day 4",109.29
same,Body weight normalized to day 0,"E3 5.0 mg/kg on days 14+18, day 7",119.77
same,Body weight normalized to day 0,"E3 5.0 mg/kg on days 14+18, day 8",121.96
same,Body weight normalized to day 0,"E3 5.0 mg/kg on days 14+18, day 9",123.04
same,Body weight normalized to day 0,"E3 5.0 mg/kg on days 14+18, day 10",120.00
same,Body weight normalized to day 0,"E3 5.0 mg/kg on days 14+18, day 11",117.97
same,Body weight normalized to day 0,[25],111.58
same,Body weight normalized to day 14,[25],100.00
same,Body weight normalized to day 0,[26],113.33
same,Body weight normalized to day 14,[26],101.61
same,Body weight normalized to day 0,[27],116.06
same,Body weight normalized to day 14,[27],104.09
same,Body weight normalized to day 0,[28],119.14
same,Body weight normalized to day 14,[28],106.85
same,Body weight normalized to day 0,[29],122.14
same,Body weight normalized to day 14,[29],109.53
same,Body weight normalized to day 0,[30],128.60
same,Body weight normalized to day 14,[30],115.32
same,Body weight normalized to day 0,[31],132.82
same,Body weight normalized to day 14,[31],119.11
same,Body weight normalized to day 0,[32],140.79
same,Body weight normalized to day 14,[32],126.36
same,Body weight normalized to day 0,[33],141.77
same,Body weight normalized to day 14,[33],127.25
same,change in body weight vs vehicle-treated arthritic animals (two-way ANOVA),"data normalized to day 0, 0.03 mg/kg (p<0.002)",significant change in body weight
same,change in body weight vs vehicle-treated arthritic animals (two-way ANOVA),"data normalized to day 14, 0.03 mg/kg (p<0.005)",significant change in body weight
same,weight loss compared with saline treated arthritic rats,"rat, in vivo",less apparent weight loss than saline treated arthritic rats
